Experimental data as given in patent EP4786492A1.
Positions count from the first letter of the chain named. Blank lines part the entries; values can stand above or below the binder they belong to.

Tests used:
[1] = target: mouse DLL3 on CHO-K1-mDLL3 cells (mouse) (UniProt O88516); test: FACS, CHO-K1-mDLL3 cells, 0.00128 nM antibody
[2] = target: monkey DLL3 on CHO-K1-cyno DLL3 cells (cynomolgus monkey); test: FACS, CHO-K1-cyno DLL3 cells, 0.0064 nM antibody
[3] = target: mouse DLL3 on CHO-K1-mDLL3 cells (mouse) (UniProt O88516); test: FACS, CHO-K1-mDLL3 cells, 0.8 nM antibody
[4] = target: monkey DLL3 on CHO-K1-cyno DLL3 cells (cynomolgus monkey); test: FACS, CHO-K1-cyno DLL3 cells, 0.16 nM antibody
[5] = target: monkey DLL3 on CHO-K1-cyno DLL3 cells (cynomolgus monkey); test: FACS, CHO-K1-cyno DLL3 cells, 20 nM antibody
[6] = target: human DLL3 protein expressed on CHO-K1 recombinant cells (human DLL3 extracellular segment fused to EpCAM transmembrane and intracellular regions) (human) (UniProt Q9NYJ7); test: FACS, CHO-K1 hDLL3 cells, 20 nM antibody
Chain of human DLL3 protein expressed on CHO-K1 recombinant cells (human DLL3 extracellular segment fused to EpCAM transmembrane and intracellular regions) (human) (Q9NYJ7 other isoform, or with tags, fused parts or gaps limits assumed): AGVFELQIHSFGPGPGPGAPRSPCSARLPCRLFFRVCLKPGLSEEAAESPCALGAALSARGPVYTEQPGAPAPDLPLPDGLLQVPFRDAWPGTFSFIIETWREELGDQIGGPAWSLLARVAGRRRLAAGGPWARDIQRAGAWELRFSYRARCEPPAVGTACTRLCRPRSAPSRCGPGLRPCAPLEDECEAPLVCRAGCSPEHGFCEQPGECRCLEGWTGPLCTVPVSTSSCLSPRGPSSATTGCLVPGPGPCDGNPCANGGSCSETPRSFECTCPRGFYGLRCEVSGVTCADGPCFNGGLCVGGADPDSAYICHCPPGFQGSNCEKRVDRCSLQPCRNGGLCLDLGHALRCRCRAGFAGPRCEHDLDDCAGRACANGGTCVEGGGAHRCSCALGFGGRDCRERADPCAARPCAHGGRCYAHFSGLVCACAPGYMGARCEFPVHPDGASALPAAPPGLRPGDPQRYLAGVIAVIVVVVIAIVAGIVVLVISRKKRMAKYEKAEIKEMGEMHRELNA

[7] = target: human DLL3 protein expressed on CHO-K1 recombinant cells (human DLL3 extracellular segment fused to EpCAM transmembrane and intracellular regions) (human) (UniProt Q9NYJ7); test: FACS, CHO-K1 hDLL3 cells, 100 nM antibody
[8] = target: mouse DLL3 on CHO-K1-mDLL3 cells (mouse) (UniProt O88516); test: FACS, CHO-K1-mDLL3 cells, 4 nM antibody
[9] = target: human DLL1 protein (Acro, Cat. No. DL1-H52H8) (human) (UniProt O00548); test: ELISA, coated hDLL1; maximum over 0.1, 1, 10, 100 nM antibody
Chain of human DLL1 protein (Acro, Cat. No. DL1-H52H8) (human) (O00548 18-540 limits assumed): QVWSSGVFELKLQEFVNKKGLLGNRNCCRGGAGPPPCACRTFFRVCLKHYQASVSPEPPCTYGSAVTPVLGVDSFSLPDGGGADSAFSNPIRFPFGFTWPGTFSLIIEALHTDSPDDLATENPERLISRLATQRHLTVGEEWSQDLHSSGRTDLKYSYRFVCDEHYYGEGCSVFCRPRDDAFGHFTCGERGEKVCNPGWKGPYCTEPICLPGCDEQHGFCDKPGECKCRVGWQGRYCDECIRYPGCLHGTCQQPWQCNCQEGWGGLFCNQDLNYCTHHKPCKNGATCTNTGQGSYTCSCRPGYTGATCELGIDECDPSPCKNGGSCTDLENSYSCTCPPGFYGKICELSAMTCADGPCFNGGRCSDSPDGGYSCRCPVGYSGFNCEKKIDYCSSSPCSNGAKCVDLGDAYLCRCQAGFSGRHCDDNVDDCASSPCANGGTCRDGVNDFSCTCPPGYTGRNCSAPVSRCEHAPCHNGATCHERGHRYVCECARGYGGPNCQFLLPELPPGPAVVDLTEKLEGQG

[10] = target: monkey DLL3 on CHO-K1-cyno DLL3 cells (cynomolgus monkey); test: FACS, CHO-K1-cyno DLL3 cells, 0.00128 nM antibody
[11] = target: human DLL3 protein expressed on CHO-K1 recombinant cells (human DLL3 extracellular segment fused to EpCAM transmembrane and intracellular regions) (human) (UniProt Q9NYJ7); test: FACS, CHO-K1 hDLL3 cells, 0.032 nM antibody
[12] = target: human DLL3 protein expressed on CHO-K1 recombinant cells (human DLL3 extracellular segment fused to EpCAM transmembrane and intracellular regions) (human) (UniProt Q9NYJ7); test: FACS, CHO-K1 hDLL3 cells, 0.00128 nM antibody
[13] = target: mouse DLL3 on CHO-K1-mDLL3 cells (mouse) (UniProt O88516); test: FACS, CHO-K1-mDLL3 cells, 0.032 nM antibody
[14] = target: human DLL3 protein expressed on CHO-K1 recombinant cells (human DLL3 extracellular segment fused to EpCAM transmembrane and intracellular regions) (human) (UniProt Q9NYJ7); test: FACS, CHO-K1 hDLL3 cells, 0.8 nM antibody
[15] = target: human DLL3 protein expressed on CHO-K1 recombinant cells (human DLL3 extracellular segment fused to EpCAM transmembrane and intracellular regions) (human) (UniProt Q9NYJ7); test: FACS, CHO-K1 hDLL3 cells, 0.16 nM antibody
[16] = target: mouse DLL3 on CHO-K1-mDLL3 cells (mouse) (UniProt O88516); test: FACS, CHO-K1-mDLL3 cells, 20 nM antibody
[17] = target: human DLL4 protein (Acro, Cat. No. DL4-H5227) (human) (UniProt Q9NR61); test: ELISA, coated hDLL4; maximum over 0.1, 1, 10, 100 nM antibody
Chain of human DLL4 protein (Acro, Cat. No. DL4-H5227) (human) (Q9NR61 27-524 limits assumed): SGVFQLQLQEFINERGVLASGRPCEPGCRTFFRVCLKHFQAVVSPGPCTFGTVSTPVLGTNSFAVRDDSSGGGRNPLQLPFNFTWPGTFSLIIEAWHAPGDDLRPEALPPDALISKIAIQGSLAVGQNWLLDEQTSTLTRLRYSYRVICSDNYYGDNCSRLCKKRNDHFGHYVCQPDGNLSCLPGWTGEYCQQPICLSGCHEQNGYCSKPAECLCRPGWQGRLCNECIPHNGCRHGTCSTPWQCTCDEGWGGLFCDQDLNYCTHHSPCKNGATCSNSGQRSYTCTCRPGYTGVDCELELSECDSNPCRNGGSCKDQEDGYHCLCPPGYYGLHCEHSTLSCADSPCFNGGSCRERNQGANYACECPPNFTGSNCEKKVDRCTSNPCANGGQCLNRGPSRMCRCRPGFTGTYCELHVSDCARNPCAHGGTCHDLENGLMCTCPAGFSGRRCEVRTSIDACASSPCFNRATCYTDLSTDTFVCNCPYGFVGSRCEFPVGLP

[18] = target: mouse DLL3 on CHO-K1-mDLL3 cells (mouse) (UniProt O88516); test: FACS, CHO-K1-mDLL3 cells, 100 nM antibody
[19] = target: human DLL3 protein expressed on CHO-K1 recombinant cells (human DLL3 extracellular segment fused to EpCAM transmembrane and intracellular regions) (human) (UniProt Q9NYJ7); test: FACS, CHO-K1 hDLL3 cells, 0.0064 nM antibody
[20] = target: human DLL3 protein expressed on CHO-K1 recombinant cells (human DLL3 extracellular segment fused to EpCAM transmembrane and intracellular regions) (human) (UniProt Q9NYJ7); test: FACS, CHO-K1 hDLL3 cells, 4 nM antibody
[21] = target: human DLL3 protein (extracellular segment, His tag) (human) (UniProt Q9NYJ7); test: SPR (Biacore 8K), antibody captured on Protein A chip, DLL3 antigen in solution, 1:1 Langmuir fit
Chain of human DLL3 protein (extracellular segment, His tag) (human) (Q9NYJ7 27-492): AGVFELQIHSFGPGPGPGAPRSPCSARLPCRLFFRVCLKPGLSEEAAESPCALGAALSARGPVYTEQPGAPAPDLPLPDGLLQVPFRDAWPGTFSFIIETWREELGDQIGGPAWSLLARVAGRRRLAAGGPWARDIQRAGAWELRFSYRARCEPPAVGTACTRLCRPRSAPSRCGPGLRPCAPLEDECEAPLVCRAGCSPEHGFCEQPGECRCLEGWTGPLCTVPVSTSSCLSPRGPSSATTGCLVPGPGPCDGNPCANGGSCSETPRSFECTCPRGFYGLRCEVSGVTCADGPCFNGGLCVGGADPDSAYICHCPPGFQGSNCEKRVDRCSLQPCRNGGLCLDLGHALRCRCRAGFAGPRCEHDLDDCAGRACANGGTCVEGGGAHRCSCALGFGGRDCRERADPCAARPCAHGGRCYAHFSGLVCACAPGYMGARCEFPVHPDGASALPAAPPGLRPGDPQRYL

[22] = target: monkey DLL3 on CHO-K1-cyno DLL3 cells (cynomolgus monkey); test: FACS, CHO-K1-cyno DLL3 cells, 100 nM antibody
[23] = target: monkey DLL3 on CHO-K1-cyno DLL3 cells (cynomolgus monkey); test: FACS, CHO-K1-cyno DLL3 cells, 0.8 nM antibody
[24] = target: monkey DLL3 on CHO-K1-cyno DLL3 cells (cynomolgus monkey); test: FACS, CHO-K1-cyno DLL3 cells, 0.032 nM antibody
[25] = target: mouse DLL3 on CHO-K1-mDLL3 cells (mouse) (UniProt O88516); test: FACS, CHO-K1-mDLL3 cells, 0.16 nM antibody
[26] = target: human delta-like ligand 3 (DLL3) on SHP77 cells (human) (UniProt Q9NYJ7); test: FACS on SHP77 cells
Chain of human delta-like ligand 3 (DLL3) on SHP77 cells (human) (Q9NYJ7 27-618, stated change not applied): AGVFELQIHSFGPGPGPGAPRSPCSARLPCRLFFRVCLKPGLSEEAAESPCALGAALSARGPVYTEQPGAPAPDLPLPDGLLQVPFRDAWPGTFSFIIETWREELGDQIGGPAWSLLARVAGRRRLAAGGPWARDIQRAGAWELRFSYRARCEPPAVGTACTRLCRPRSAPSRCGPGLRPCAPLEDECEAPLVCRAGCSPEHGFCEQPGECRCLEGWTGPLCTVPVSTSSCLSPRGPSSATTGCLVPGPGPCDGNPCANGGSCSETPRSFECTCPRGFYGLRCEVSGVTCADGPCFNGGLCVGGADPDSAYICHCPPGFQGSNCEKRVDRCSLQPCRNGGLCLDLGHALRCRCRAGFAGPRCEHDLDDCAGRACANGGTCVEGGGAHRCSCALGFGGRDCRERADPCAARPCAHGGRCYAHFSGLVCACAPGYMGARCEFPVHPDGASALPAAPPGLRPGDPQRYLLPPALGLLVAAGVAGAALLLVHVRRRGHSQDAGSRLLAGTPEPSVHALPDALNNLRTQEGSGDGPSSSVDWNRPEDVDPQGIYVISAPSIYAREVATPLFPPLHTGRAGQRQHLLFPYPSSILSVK

[27] = target: mouse DLL3 on CHO-K1-mDLL3 cells (mouse) (UniProt O88516); test: FACS, CHO-K1-mDLL3 cells, 0.0064 nM antibody
[28] = target: monkey DLL3 on CHO-K1-cyno DLL3 cells (cynomolgus monkey); test: FACS, CHO-K1-cyno DLL3 cells, 4 nM antibody

Chain of monkey DLL3 on CHO-K1-cyno DLL3 cells (cynomolgus monkey) (chain, as listed by the source limits assumed): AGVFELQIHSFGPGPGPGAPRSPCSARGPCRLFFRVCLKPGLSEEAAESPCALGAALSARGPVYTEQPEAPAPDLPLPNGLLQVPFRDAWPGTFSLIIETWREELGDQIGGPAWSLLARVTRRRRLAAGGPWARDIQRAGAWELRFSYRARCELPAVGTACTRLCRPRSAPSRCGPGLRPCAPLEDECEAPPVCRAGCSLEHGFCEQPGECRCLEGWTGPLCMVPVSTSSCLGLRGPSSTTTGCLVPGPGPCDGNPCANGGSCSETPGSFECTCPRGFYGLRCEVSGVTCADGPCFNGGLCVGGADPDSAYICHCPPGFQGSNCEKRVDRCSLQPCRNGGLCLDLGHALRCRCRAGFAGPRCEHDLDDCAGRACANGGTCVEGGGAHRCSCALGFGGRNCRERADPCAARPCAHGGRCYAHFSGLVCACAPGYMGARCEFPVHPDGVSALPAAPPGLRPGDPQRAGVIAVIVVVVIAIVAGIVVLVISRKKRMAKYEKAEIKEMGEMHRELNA
Chain of mouse DLL3 on CHO-K1-mDLL3 cells (mouse) (O88516 other isoform, or with tags, fused parts or gaps limits assumed): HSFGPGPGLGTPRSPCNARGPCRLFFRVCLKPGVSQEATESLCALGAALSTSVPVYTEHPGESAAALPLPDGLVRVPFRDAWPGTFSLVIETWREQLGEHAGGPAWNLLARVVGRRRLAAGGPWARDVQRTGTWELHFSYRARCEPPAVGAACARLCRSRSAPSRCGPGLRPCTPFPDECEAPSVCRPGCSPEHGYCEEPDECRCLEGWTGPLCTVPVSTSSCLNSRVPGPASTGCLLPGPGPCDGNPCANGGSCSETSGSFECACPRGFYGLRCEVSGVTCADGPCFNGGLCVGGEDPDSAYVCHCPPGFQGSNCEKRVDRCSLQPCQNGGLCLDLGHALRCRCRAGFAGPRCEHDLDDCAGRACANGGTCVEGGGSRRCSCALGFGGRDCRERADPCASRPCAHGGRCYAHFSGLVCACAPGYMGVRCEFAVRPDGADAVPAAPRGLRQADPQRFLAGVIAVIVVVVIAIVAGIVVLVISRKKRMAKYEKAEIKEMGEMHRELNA

MFI [1]: 86 MFI
MFI [2]: 178 MFI
MFI [3]: 327 MFI
MFI [4]: 1640 MFI
MFI [5]: 27100 MFI
MFI [6]: 12400 MFI
MFI [7]: 12900 MFI
MFI [8]: 367 MFI
Emax of OD450 nm binding value [9]: 0.05 OD450 nm
MFI [10]: 120 MFI
MFI [11]: 1540 MFI
MFI [12]: 199 MFI
MFI [13]: 166 MFI
MFI [14]: 11000 MFI
MFI [15]: 5840 MFI
MFI [16]: 383 MFI
Emax of OD450 nm binding value [17]: 0.08 OD450 nm
MFI [18]: 400 MFI
MFI [19]: 452 MFI
MFI [20]: 11900 MFI
Kd [21]: 325 pM
koff [21]: 0.00194 s⁻¹
kon [21]: 5.96e+06 M⁻¹ s⁻¹
MFI [22]: 27000 MFI
MFI [23]: 6880 MFI
MFI [24]: 423 MFI
MFI [25]: 258 MFI
MFI at 0.00128 nM [26]: 107 MFI
MFI at 0.0064 nM [26]: 129 MFI
MFI at 0.032 nM [26]: 205 MFI
MFI at 0.16 nM [26]: 430 MFI
MFI at 0.8 nM [26]: 692 MFI
MFI at 4 nM [26]: 783 MFI
MFI at 20 nM [26]: 855 MFI
MFI at 100 nM [26]: 969 MFI
MFI [27]: 109 MFI
MFI [28]: 19900 MFI
B1: Hab009VL1aVH1-hFc (scFv, part only; not given: scFv linker and human IgG1 Fc, V domains shown, not shown: another chain or arm of the molecule; a dimerising Fc or GST; small tags and cut ends)
VL: DIVMTQSPLSLPVTPGEPASISCRASQTISDYLHWYLQKPGQSPQLLIKYASQSISGVPDRFSGSGSGSDFTLKISRVEAEDVGVYYCQQGHSFPLTFGQGTKLEIK
VH: EVQLVQSGAEVKKPGASVKVSCKASGYTFTSYWMHWVRQAPGQRLEWMGTIYPGNSDTRYNQKFKDRVTITADTSASTAYMELSSLRSEDTAVYYCTRSYDYGDLDYWGQGTTVTVSS

MFI [1]: 172 MFI
MFI [2]: 3160 MFI
MFI [3]: 338 MFI
MFI [4]: 13700 MFI
MFI [5]: 28200 MFI
MFI [6]: 12600 MFI
MFI [7]: 13100 MFI
MFI [8]: 358 MFI
Emax of OD450 nm binding value [9]: 0.07 OD450 nm
MFI [10]: 1340 MFI
MFI [11]: 1610 MFI
MFI [12]: 210 MFI
MFI [13]: 272 MFI
MFI [14]: 12000 MFI
MFI [15]: 5930 MFI
MFI [16]: 398 MFI
Emax of OD450 nm binding value [17]: 0.06 OD450 nm
MFI [18]: 438 MFI
MFI [19]: 476 MFI
MFI [20]: 12700 MFI
Kd [21]: 328 pM
koff [21]: 0.0019 s⁻¹
kon [21]: 5.79e+06 M⁻¹ s⁻¹
MFI [22]: 28400 MFI
MFI [23]: 24300 MFI
MFI [24]: 5450 MFI
MFI [25]: 300 MFI
MFI at 0.00128 nM [26]: 108 MFI
MFI at 0.0064 nM [26]: 128 MFI
MFI at 0.032 nM [26]: 201 MFI
MFI at 0.16 nM [26]: 432 MFI
MFI at 0.8 nM [26]: 683 MFI
MFI at 4 nM [26]: 784 MFI
MFI at 20 nM [26]: 825 MFI
MFI at 100 nM [26]: 929 MFI
MFI [27]: 238 MFI
MFI [28]: 27600 MFI
B2: Hab009VL2aVH1-hFc (scFv, part only; not given: VL-VH linker and human IgG1 Fc, V domains shown, not shown: another chain or arm of the molecule; a dimerising Fc or GST; small tags and cut ends)
VL: B1 VL with Q45R, S69T
VH: B1 VH
